Experimental data from patent publication US20090035317A1, “Peptides binding to vascular endothelial growth factor” (priority 2007, published 2009).
One block for each molecule: values may come before it. Bridge positions count the residues as written; N and C are the ends. Ends that are not written are not given here.

Columns and labels:
biotinylated VEGF = test: First order dissociation rate constants (koff) of cell-surface displayed peptides, flow cytometry; format: binding; settings: peptide displayed on bacterial cell surface; for RT koff: room temperature
Method: (§1) Cells displaying VEGF-binding peptides were first incubated with biotinylated VEGF and allowed to equilibrate at 4° C. After centrifugation, excess VEGF was removed. The cells were then resuspended in buffer, such that the concentration of cells was diluted 1:10, as compared to the VEGF-labeling step. Cells were allowed to incubate in buffer at room temperature or 37° C. for times varying from 5 minutes to 21 hours to allow dissociation of VEGF from the cell surface. After the appropriate amount of time, the cells were placed on ice to stop the dissociation, and streptavidin-phycoerythrin (SAPE) was added for fluorescence labeling. After centrifugation, excess SAPE was removed, and cellular fluorescence was measured by flow cytometry. Fluorescence data as a function of dissociation time was used to determine koff.

VEGF [1] = test: Clone characterization: off-rate from VEGF at room temperature (Example 1); format: binding; settings: 10 nM VEGF labeling, FIG. 3, FIG. 4
Method: Initial measurements of off-rate were made for each clone in order to narrow down the search for the best binding peptide. Each clone was labeled with 10-nM VEGF. Excess VEGF was washed away, and the protein was allowed to dissociate for 15 and 30 minutes at room temperature. SAPE was added, and secondary labeling was performed on ice. Excel's Regression function was used to calculate koff for each peptide using three time points (0, 15, and 30 minutes) and the standard error for the regression.
Each clone was incubated with 10 nM VEGF and allowed to come to equilibrium. The excess VEGF was washed away, and the cells were separated into 4 aliquots and diluted 1/10 in room temperature PBS. SAPE was added to the appropriate aliquot after 5, 10, 15, and 30 minutes for secondary labeling on ice. The mean fluorescence at these time points was used to determine koff. In most cases, the t=30 minute point could not be incorporated into the regression.
Target sequence in this assay (P15692 207-315 limits assumed): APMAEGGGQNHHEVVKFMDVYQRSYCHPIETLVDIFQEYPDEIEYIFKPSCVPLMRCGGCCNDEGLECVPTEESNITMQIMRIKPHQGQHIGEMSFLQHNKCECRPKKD

VEGF [2] = test: Equilibrium binding of displayed clones with VEGF at 1 nM and 10 nM; settings: displayed on cell surface
Target sequence in this assay (P15692 207-320 limits assumed): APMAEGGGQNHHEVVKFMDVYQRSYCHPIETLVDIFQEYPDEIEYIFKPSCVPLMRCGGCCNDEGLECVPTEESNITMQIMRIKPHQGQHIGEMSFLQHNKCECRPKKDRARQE

[3] = system: biotinylated recombinant murine VEGF (rmVEGF); test: Murine cross-reactivity, flow cytometry; format: binding; settings: rmVEGF at 25 and 250 nM
Method: Cells expressing VEGF-binding peptides were incubated with biotinylated recombinant murine VEGF (rmVEGF). Fluorescence labeling was performed with SAPE as previously described. The first seven clones listed in Table 5 as well as v114 were assayed for cross-reactivity with rmVEGF. All of the ligands analyzed bound rmVEGF at concentrations of 25 and 250 nM, as measured by flow cytometry.

VEGF [4] = target: T1, VEGF (Homo sapiens, UniProt P15692); settings: Fairbrother et al. (1998); read-out: reported equilibrium dissociation constant (KD); cited from earlier work
T1 sequence (P15692 214-315 limits assumed): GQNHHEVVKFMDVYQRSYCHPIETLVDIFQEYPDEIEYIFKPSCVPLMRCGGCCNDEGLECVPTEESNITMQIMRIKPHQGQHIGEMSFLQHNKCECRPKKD

VEGF [5] = test: Specificity: retention of VEGF binding fluorescence in BSA and serum; settings: 10-nM VEGF; serum dilutions; FIG. 5
Method: In addition, measurements of specificity were performed for the four peptides whose off-rate could be calculated. Each clone was incubated with 10-nM VEGF in varying dilutions of BSA and serum followed by secondary labeling with SAPE at the same BSA/serum concentration. It was assumed that a specific peptide would retain more fluorescence upon serum addition than a non-specific peptide. The serum was first prepared by incubation with cells overexpressing the CPXopt template, spinning down the cell pellet and any bacteria-specific proteins bound to them, and removing the supernatant for incubation with the selected clones. Adding BSA up to physiological conditions decreased the mean fluorescence of each clone by an average of ˜40%, seemingly indicating some degree of specificity. […] FIG. 5 gives the fluorescence remaining after serum addition relative to initial fluorescence (at a serum dilution of 1/100), which was taken to be a measure of the specificity of the interaction between the peptide and VEGF. […] Therefore, the change in fluorescence of a gated population of positive binding cells was used to determine the specificity metric. In some cases with undiluted serum, a significant fraction of cells (>˜1%) still fell into this positive, and the fluorescence of this small fraction of cells was used to calculate the specificity. […]
Target sequence in this assay (P15692 207-320 limits assumed): as the sequence (P15692 207-320 limits assumed) above

[6] = target: T2, vascular endothelial growth factor (VEGF) (UniProt P15692-4 27-191, limits assumed, biotinylated); test: apparent equilibrium KD measured from the bacterial cell surface, flow cytometry
T2 construct: Soluble biotinylated VEGF used to label cells that display the peptides; also called biotinylated VEGF

[7] = target: T2, vascular endothelial growth factor …; test: flow cytometry, peptide displayed on bacterial cell surface, dissociation of biotinylated VEGF at 37° C.
Method: as §1

[8] = target: T2, vascular endothelial growth factor …; test: flow cytometry, peptide displayed on bacterial cell surface, dissociation of biotinylated VEGF at room temperature
Method: as §1

[9] = target: T2, vascular endothelial growth factor …; test: comparison of room temperature koff values of Table 5, flow cytometry on displayed peptides
Method: as §1

[10] = target: T2, vascular endothelial growth factor …; test: comparison of 37° C. koff values of Table 5, flow cytometry on displayed peptides
Method: as §1

[11] = target: T2, vascular endothelial growth factor …; test: flow cytometry competition; soluble v114 premixed with biotinylated VEGF; competitor: displayed L3.F5A.01, compared with displayed L2.F4.04
Method: Biotinylated VEGF was first mixed with various concentrations of soluble v114 peptide (Anaspec); the ratio of soluble peptide to VEGF ranged from ˜2:1 to 5000:1. Cells expressing VEGF binding peptides were then incubated with this VEGF/peptide mixture and allowed to equilibrate at 4° C. After centrifugation, unbound protein/peptide was removed, and the cells were resuspended in SAPE for fluorescence labeling.

Chain of biotinylated VEGF (P15692 207-320 limits assumed): as the sequence (P15692 207-320 limits assumed) above
T2 sequence (P15692 other isoform, or with tags, fused parts or gaps limits assumed): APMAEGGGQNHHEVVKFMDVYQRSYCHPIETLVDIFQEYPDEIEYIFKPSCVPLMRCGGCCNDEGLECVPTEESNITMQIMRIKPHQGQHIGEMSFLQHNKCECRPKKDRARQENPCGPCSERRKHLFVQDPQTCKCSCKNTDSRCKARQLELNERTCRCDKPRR
Chain of biotinylated recombinant murine VEGF (rmVEGF) (Q00731 205-317 limits assumed): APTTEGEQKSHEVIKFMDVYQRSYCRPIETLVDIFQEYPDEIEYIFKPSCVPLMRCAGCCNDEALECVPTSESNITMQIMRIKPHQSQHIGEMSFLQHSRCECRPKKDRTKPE

Molecule: SSKCGRWGETPCLAEGGGSGGGNFGYGKWEWDYGKWLEKVG [Clone L3.F5A.01, SSKCGRWGETPCLAE-GGGSGGG-NFGYGKWEWDYGKWLEKVG]
37° C. koff (biotinylated VEGF): 0.00012 s⁻¹
RT koff (biotinylated VEGF): 2e-05 s⁻¹

Molecule: WKELRFWDWEGGNHKKCVT (VEGF-binding peptide) [Clone L2.F3B.12]
dissociation rate (in words) (VEGF [1]): slow dissociation rates

Molecule: AKRSSYSMWGAMPGGGSGGGNFGYGKWEWDYGKWLEKV [Clone L3.F5A.03, AKRSSYSMWGAMP-GGGSGGG-NFGYGKWEWDYGKWLEKV]
37° C. koff (biotinylated VEGF): 0.0006 s⁻¹
RT koff (biotinylated VEGF): 4.28e-05 s⁻¹

Molecule: HQQLQYWDWIEAVVHNG (VEGF-binding peptide) [Clone L2.F3A.05]
dissociation rate (in words) (VEGF [1]): slow dissociation rates

Molecule: VEPNCDIHVMWEWECFERL [v114, soluble peptide from Anaspec; positive control]
binding of rmVEGF [3]: bound rmVEGF
Kd (VEGF [4]): 110 nM

Molecule: SYVLKEWSVPSWGKPGGGSGGGNFGYGKWEWDYGKWLEKV [Clone L3.F6.01, SYVLKEWSVPSWGKP-GGGSGGG-NFGYGKWEWDYGKWLEKV]
37° C. koff (biotinylated VEGF): 0.00025 s⁻¹
RT koff (biotinylated VEGF): 0.00011 s⁻¹

Molecule: SKLKTLLWQQGGGSGGGNFGYGKWEWDYGKWLEKV [Clone L3.F6.02, SKLKTLLWQQ-GGGSGGG-NFGYGKWEWDYGKWLEKV]
37° C. koff (biotinylated VEGF): 0.0014 s⁻¹
RT koff (biotinylated VEGF): 0.000291 s⁻¹

Molecule: NFGYGKWEWDYGKWLEKVG [Clone L2.F4.04]
37° C. koff (biotinylated VEGF): 0.0013 s⁻¹
RT koff (biotinylated VEGF): 0.0013 s⁻¹
dissociation rate (in words) (VEGF [1]): slow dissociation rates
fluorescence labeling when bound to VEGF (VEGF [2]): bright fluorescence signals

Molecule: VTSRYEMREDGSWKKGGGSGGGNFGYGKWEWDYGKWLEKVG [Clone L3.F5A.02, VTSRYEMREDGSWKK-GGGSGGG-NFGYGKWEWDYGKWLEKVG]
37° C. koff (biotinylated VEGF): 0.00074 s⁻¹

B5: L3.F6.02 (peptide)
peptide: SKLKTLLWQQGGGSGGGNFGYGKWEWDYGKWLEKV
modifications: Displayed on the E. coli surface as a fusion to CPXopt; the letters do not carry the scaffold.
notes: Peptide 2 is printed without the final G of L2.F4.04; not shown: CPXopt bacterial display scaffold that carried the peptide on the cell surface
Kd [6]: 5 nM
fold improvement (slower dissociation) against the monodendate parent peptide L2.F4.04 [9]: 4 to 65 fold
koff [7]: 0.0014 s⁻¹
koff [8]: 0.000291 s⁻¹

More lines, main results first:

fluorescence labeling when bound to VEGF (VEGF [2]): better labeling
Molecule: GPGWWLWDWDNLGARRGGL (VEGF-binding peptide) [Clone L2.F3A.10]

fluorescence labeling when bound to VEGF (VEGF [2]): bright fluorescence signals
Molecule: CPVQTMWDWECMRAFIEG [Clone L2.F3B.08]
37° C. koff (biotinylated VEGF): 0.0042 s⁻¹
RT koff (biotinylated VEGF): 0.0072 s⁻¹
dissociation rate (in words) (VEGF [1]): good dissociation kinetics
effect of serum addition on VEGF binding fluorescence (VEGF [5]): loses more fluorescence upon serum addition than does L2.F4.04

Kd [6]: 17.8 nM
koff [7]: 0.0042 s⁻¹
koff [8]: 0.0072 s⁻¹
B1: L2.F3B.08 (peptide)
peptide: CPVQTMWDWECMRAFIEG
modifications: disulfide 1-11 (inferred)
notes: not shown: CPXopt bacterial display scaffold (carrier)

Kd [6]: 2.6 nM
koff [7]: 0.00074 s⁻¹
B2: L3.F5A.02 (peptide)
peptide: VTSRYEMREDGSWKKGGGSGGGNFGYGKWEWDYGKWLEKVG
notes: as for B1

Kd [6]: 3.7 nM
koff [7]: 0.0006 s⁻¹
koff [8]: 4.28e-05 s⁻¹
B3: L3.F5A.03 (peptide)
peptide: AKRSSYSMWGAMPGGGSGGGNFGYGKWEWDYGKWLEKV
modifications: Displayed on the E. coli surface as a fusion to CPXopt; the letters do not carry the scaffold.
notes: as for B5

Kd [6]: 3.5 nM
koff [7]: 0.00025 s⁻¹
koff [8]: 0.00011 s⁻¹
B4: L3.F6.01 (peptide)
peptide: SYVLKEWSVPSWGKPGGGSGGGNFGYGKWEWDYGKWLEKV
modifications: Displayed on the E. coli surface as a fusion to CPXopt; the letters do not carry the scaffold.
notes: as for B5

fold improvement (slower dissociation) against the monodendate parent peptide L2.F4.04 [10]: ≤ 12 fold
Kd [6]: 2.1 nM
fold improvement (slower dissociation) against the monodendate parent peptide L2.F4.04 [9]: 4 to 65 fold
koff [7]: 0.00012 s⁻¹
koff [8]: 2e-05 s⁻¹
B6: L3.F5A.01 (peptide)
peptide: SSKCGRWGETPCLAEGGGSGGGNFGYGKWEWDYGKWLEKVG
notes: also called bidentate peptide L3.F5A.01; not shown: CPXopt bacterial display scaffold (carrier)

fold increase in the concentration of v114 required to block 50% of VEGF binding, bidentate peptide against parent peptide [11]: ≥ 5 fold
B7: soluble v114 peptide (Anaspec) (peptide)
peptide: VEPNCDIHVMWEWECFERL
notes: also called Genentech v114 peptide

Kd [6]: 6.1 nM
koff [7]: 0.0013 s⁻¹
koff [8]: 0.0013 s⁻¹
B8: L2.F4.04 (peptide)
peptide: NFGYGKWEWDYGKWLEKVG
notes: as for B1
